This note sets out measurements from patent US20040043420A1, “Method of identifying conformation-sensitive binding peptides and uses thereof” (priority 2003, published 2004).

Experiment [1] deals with T1, ER β, Q92731.
T1 chain: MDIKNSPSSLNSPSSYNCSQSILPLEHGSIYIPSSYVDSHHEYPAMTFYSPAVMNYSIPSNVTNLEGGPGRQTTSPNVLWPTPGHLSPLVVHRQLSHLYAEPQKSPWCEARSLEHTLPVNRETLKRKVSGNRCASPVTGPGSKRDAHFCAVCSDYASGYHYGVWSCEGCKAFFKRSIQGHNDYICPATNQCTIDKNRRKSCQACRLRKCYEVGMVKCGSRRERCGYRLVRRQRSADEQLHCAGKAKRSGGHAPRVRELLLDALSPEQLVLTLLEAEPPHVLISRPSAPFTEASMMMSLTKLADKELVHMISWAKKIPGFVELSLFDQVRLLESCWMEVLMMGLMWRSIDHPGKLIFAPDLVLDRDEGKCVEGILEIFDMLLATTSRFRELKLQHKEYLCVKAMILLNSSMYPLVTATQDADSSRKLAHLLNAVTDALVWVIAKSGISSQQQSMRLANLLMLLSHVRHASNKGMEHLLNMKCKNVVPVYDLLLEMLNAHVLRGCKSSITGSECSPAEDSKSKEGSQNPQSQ
The experiment can be described thus: peptide probe binding to ERβ, all modulators.

The target of experiment [2] is T2, ER α (UniProt P03372 1-595, limits assumed).
T2 construct: also called estrogen receptor α; ERα-ERE
T2 sequence (looked up): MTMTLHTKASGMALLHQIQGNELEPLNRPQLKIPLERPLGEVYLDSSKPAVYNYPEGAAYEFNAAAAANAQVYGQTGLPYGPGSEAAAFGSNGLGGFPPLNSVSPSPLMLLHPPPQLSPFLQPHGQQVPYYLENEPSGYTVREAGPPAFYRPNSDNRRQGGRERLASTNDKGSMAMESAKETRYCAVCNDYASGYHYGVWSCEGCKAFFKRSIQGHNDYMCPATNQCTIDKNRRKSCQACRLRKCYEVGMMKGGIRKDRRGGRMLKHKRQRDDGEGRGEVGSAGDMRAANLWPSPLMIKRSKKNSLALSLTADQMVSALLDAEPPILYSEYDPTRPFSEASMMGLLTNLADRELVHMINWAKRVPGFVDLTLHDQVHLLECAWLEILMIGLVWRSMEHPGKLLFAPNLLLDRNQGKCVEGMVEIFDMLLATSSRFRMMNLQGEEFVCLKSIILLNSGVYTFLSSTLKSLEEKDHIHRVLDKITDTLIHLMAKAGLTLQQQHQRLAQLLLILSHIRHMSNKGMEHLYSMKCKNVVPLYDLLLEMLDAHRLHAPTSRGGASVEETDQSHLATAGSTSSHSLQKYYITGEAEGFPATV
The experiment in a line: affinity of phage class for unliganded ER α.

Experiment [3] deals with T2, ER α. The experiment in a line: phage ELISA, ICI 182,780 1 µM. On the technique in general: An ELISA detects its analyte on a solid surface through an enzyme-linked reagent.
The target of experiment [4] is T2, ER α. The experiment in a line: peptide probe binding to ERα, Buffer.
The target in experiment [5] is T2, ER α. The experiment in a line: peptide probe binding to ERα, GW7604.
Experiment [6] concerns the target T3, ER β (UniProt Q92731 1-530, limits assumed).
T3 construct: In vitro; also called estrogen receptor β; ERβ-ERE
The experiment can be described thus: peptide probe binding to ERβ, Estriol.

Experiment [7] concerns the target T2, ER α. The experiment in a line: peptide probe binding to ERα, Raloxifene.
Experiment [8] deals with T2, ER α. The experiment can be described thus: peptide probe binding to ERα, ICI 182,780.
Experiment [9] addresses T2, ER α. The experiment in a line: peptide probe binding to ERα, 4-OH Tamoxifen.
Experiment [10] concerns the target T2, ER α. The experiment in a line: peptide probe binding to ERα, Diethylstilbesterol.
The target in experiment [11] is T3, ER β. The experiment in a line: phage ELISA, ICI 182,780 1 µM.
Experiment [12] deals with T3, ER β. The experiment can be described thus: peptide probe binding to ERβ, Buffer.
Experiment [13] concerns the target T2, ER α. The experiment can be described thus: peptide probe binding to ERα, Estriol.
Experiment [14] deals with T3, ER β. The experiment can be described thus: peptide probe binding to ERβ, GW 7604.
Experiment [15] has as its target T2, ER α. The experiment in a line: peptide probe binding to ERα, Nafoxidine.
Experiment [16] concerns the target T3, ER β. The experiment can be described thus: peptide probe binding to ERβ, Clomiphene.
Experiment [17] addresses T3, ER β. The experiment in a line: peptide probe binding to ERβ, Nafoxidine.
For experiment [18], the target named is T3, ER β. The experiment in a line: peptide probe binding to ERβ, Raloxifene.
In experiment [19] the target is T3, ER β. The experiment can be described thus: peptide probe binding to ERβ, ICI 182,780.
For experiment [20], the target named is T2, ER α. The experiment in a line: peptide probe binding to ERα, 17α-Estradiol.
For experiment [21], the target named is T2, ER α. The experiment can be described thus: peptide probe binding to ERα, 17β-Estradiol.
Experiment [22] deals with T3, ER β. The experiment in a line: peptide probe binding to ERβ, 17α-Estradiol.
The target in experiment [23] is T3, ER β. The experiment can be described thus: peptide probe binding to ERβ, 17β-Estradiol.
The target of experiment [24] is T3, ER β. The experiment can be described thus: peptide probe binding to ERβ, 4-OH Tamoxifen.
Experiment [25] addresses T3, ER β. The experiment in a line: peptide probe binding to ERβ, Diethylstilbesterol.
Experiment [26] concerns the target T1, ER β, Q92731. The experiment can be described thus: phage ELISA, raloxifene 1 µM.
Experiment [27] addresses T1, ER β, Q92731. The experiment can be described thus: phage ELISA, ICI 182,780 1 µM.
For experiment [28], the target named is T1, ER β, Q92731. The experiment in a line: phage ELISA, clomiphene 10 µM.
The target of experiment [29] is T1, ER β, Q92731. The experiment can be described thus: phage ELISA, 4-OH tamoxifen 1 µM.
For experiment [30], the target named is T4, ER α, P03372.
T4 chain: T2 sequence (looked up)
The experiment can be described thus: peptide probe binding to ERα, Buffer.

The target of experiment [31] is T4, ER α, P03372. The experiment can be described thus: peptide probe binding to ERα, GW7604.
Experiment [32] deals with T1, ER β, Q92731. The experiment can be described thus: peptide probe binding to ERβ, Buffer.
The target in experiment [33] is T4, ER α, P03372. The experiment can be described thus: peptide probe binding to ERα, Estriol.
Experiment [34] has as its target T1, ER β, Q92731. The experiment can be described thus: peptide probe binding to ERβ, Estriol.
Experiment [35] concerns the target T1, ER β, Q92731. The experiment can be described thus: peptide probe binding to ERβ, GW 7604.
Experiment [36] has as its target T4, ER α, P03372. The experiment can be described thus: peptide probe binding to ERα, Clomiphene.
Experiment [37] addresses T4, ER α, P03372. The experiment can be described thus: peptide probe binding to ERα, Nafoxidine.
Experiment [38] concerns the target T4, ER α, P03372. The experiment in a line: peptide probe binding to ERα, Raloxifene.
Experiment [39] deals with T4, ER α, P03372. The experiment in a line: peptide probe binding to ERα, ICI 182,780.
For experiment [40], the target named is T4, ER α, P03372. The experiment in a line: peptide probe binding to ERα, 17α-Estradiol.
Experiment [41] addresses T4, ER α, P03372. The experiment in a line: peptide probe binding to ERα, 17β-Estradiol.
In experiment [42] the target is T1, ER β, Q92731. The experiment can be described thus: peptide probe binding to ERβ, 17α-Estradiol.
The target of experiment [43] is T1, ER β, Q92731. The experiment in a line: peptide probe binding to ERβ, 17β-Estradiol.
Experiment [44] addresses T4, ER α, P03372. The experiment in a line: peptide probe binding to ERα, 4-OH Tamoxifen.
For experiment [45], the target named is T4, ER α, P03372. The experiment can be described thus: peptide probe binding to ERα, Diethylstilbesterol.
In experiment [46] the target is T1, ER β, Q92731. The experiment in a line: peptide probe binding to ERβ, Diethylstilbesterol.

B1: α/β II (peptide)
peptide: SAPRATISHYLMGG
modifications: not checked
In the case of B1, in the experiment with ER β, Q92731 [1], the Equiv. stood at 0%.

B2: #41 ER + estradiol (Table 3) (peptide)
peptide: HGPLTLNLLRSSGG
For B2, the binding result with ER α [2] is on record as “binds”.

B3: T1-10 (peptide)
peptide: SRLPPSVFSMCGSEVCLSR
notes: also called 9T-β; 9Tβ
For B3, the “phage ELISA grade” value with ER α [3] was determined as 0. Besides, the Equiv. with ER α [4] is 0%; with ER α [5] it was 0%; with ER β [6], -75%; in the experiment with ER α [7], 0%; in the experiment with ER α [8] it was -100%; in the experiment with ER α [9], 100%. Further, the Equiv. in the experiment with ER α [10] was determined as 0%.

B4: 14T-β (peptide)
peptide: SSPGSREWFKDMLSR
notes: also called α/β V; AB5
Take B4: the “phage ELISA grade” value with ER β [11] was 0. Moreover, the Equiv. with ER α [4], with ER α [5], with ER β [12], with ER α [13], with ER β [6] and with ER β [14] was 0% each time. Besides, the Equiv. with ER α [15] is 0%; with ER α [7] it was 0%; in the experiment with ER β [16], 13%; with ER β [17] it was 0%; with ER β [18] it was 0%; with ER α [8] it was 0%. The Equiv. in the experiment with ER β [19] stood at 0%; in the experiment with ER α [20] it was 0%; with ER α [21] it was 0%; in the experiment with ER β [22] it was 0%; with ER β [23], 0%; with ER α [9] it was 100%. The Equiv. in the experiment with ER β [24] came out at 100%; in the experiment with ER α [10], 0%; with ER β [25] it was 0%.

B5: phage 4 (Table 2) (peptide)
peptide: SSNHQSSRLIELLSR
modifications: not checked
As to B5, the phage ELISA grade with ER β, Q92731 [26] was 0; in the experiment with ER β, Q92731 [27], 0; in the experiment with ER β, Q92731 [28], 0; with ER β, Q92731 [29] it was 0. Also, the Equiv. with ER α, P03372 [30] is 0%; in the experiment with ER α, P03372 [31] it was 0%; in the experiment with ER β, Q92731 [32], 0%; with ER α, P03372 [33], 65%; in the experiment with ER β, Q92731 [34], 81%; with ER β, Q92731 [35], 0%. Besides, the Equiv. with ER α, P03372 [36] amounted to 0%; with ER α, P03372 [37], 0%; with ER α, P03372 [38], 0%; with ER α, P03372 [39], 0%; in the experiment with ER α, P03372 [40], 53%; in the experiment with ER α, P03372 [41], 100%. The Equiv. in the experiment with ER β, Q92731 [42] stood at 44%; with ER β, Q92731 [43], 100%; in the experiment with ER α, P03372 [44], 0%; with ER α, P03372 [45], 71%; in the experiment with ER β, Q92731 [46], 68%.
